Legend:
[1] = target: Ptr4CL (endogenous in SDX extract, member not told); assay: cross-linking; crude SDX extract (25 mM sodium phosphate buffer, pH 7.4) cross-linked with DSP, SDS-PAGE, western blot with PtrHCT1 and PtrHCT6 specific antibodies
[2] = target: Ptr4CL3-6 × His, recombinant (Populus trichocarpa); assay: cross-linking; recombinant Ptr4CL and PtrHCT, 200 nM each in PBS, DSP at 20-fold molar excess, room temperature 5 min, SDS-PAGE, western blot with Ptr4CL3 and PtrHCT1 antibodies
[3] = target: Ptr4CL5-6 × His, recombinant (Populus trichocarpa); assay: as above

| stoichiometry N (PtrHCT per Ptr4CL) [1] | stoichiometry N (PtrHCT per Ptr4CL) [2] | stoichiometry N (PtrHCT per Ptr4CL) [3] | Substance |
| --- | --- | --- | --- |
| 2 | – | – | PtrHCT1, endogenous in SDX protein extract (enzyme) |
| – | 2 | – | PtrHCT6-6 × His, recombinant (enzyme) |
| – | 2 | 2 | PtrHCT1-6 × His, recombinant (enzyme) |
| 2 | – | – | PtrHCT6, endogenous in SDX protein extract (enzyme) |
